Reference: patent US20230346897A1

Molecular target: human amyloid Aβ40 (human) (UniProt P05067)

amount of Aβ40 left (Tricine-SDS-PAGE, quantitative scanning; solvent control defined as 100%) after 3 h at 37 °C in rabbit cerebrospinal fluid: 74.8%
Substance: human plasminogen purified from the plasma of human donors (enzyme)
